Here are results for 1 molecule from publication PMC12025393, “Neuregulin-1 (NRG1) Binds to the Allosteric Binding Site (Site 2) and Suppresses Allosteric Integrin Activation by Inflammatory Cytokines: A Potential Mechanism of Anti-Inflammatory and Anti-Fibrosis Action of NRG1” (Cells, 2025).

No end group written: not given here.

The target in this assay is T1, WT NRG1 EGF-like domain.
T1 construct: also called NRG1 EGF domain; neuregulin-1; source: endotoxin-free E. coli BL21 (DE3) pLysS Clear-coli, purified (Ni-NTA in 8M urea, re-folded)
T1 chain: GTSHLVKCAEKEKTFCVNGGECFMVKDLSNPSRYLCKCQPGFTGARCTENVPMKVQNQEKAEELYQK
Briefly: ELISA; NRG1 (20 μg/mL in PBS) immobilised to wells, blocked with 0.1% BSA; peptides fused to GST in PBS/Tween20 (0.05%), 1 h at room temperature; HRP-conjugated anti-GST antibody; signals with scrambled β3 site 2 peptide subtracted. As to conditions: both partners purified. (In general: In an ELISA, binding on a coated surface is turned into a signal by an enzyme label.)

B1: β3 specificity-determining loop (SDL) peptide fused to GST (peptide)
chain: DKPVSPYMYISPPEALENPCYDMKTTCLPMF
modifications: not fully specified (N-terminus); cysteine pairing not given here; also: fused to GST
notes: cDNA fragment subcloned into the BamHI/EcoRI site of pGEX2T; also called β3 SDL peptide; β3-SDL peptide; source: E. coli BL21, purified (Glutathione Sepharose)
With B1, the binding result was “binds”.
